Positions count from the first letter of the chain named. Names may count otherwise. “Also recorded” adds a separate entry of the source.
B1: glucagon-like peptide 1 receptor (GLP-1R), wild-type, P43220 S206A (protein)
chain: RPQGATVSLWETVQKWREYRRQCQRSLTEDPPPATDLFCNRTFDEYACWPDGEPGSFVNVSCPWYLPWASSVPQGHVYRFCTAEGLWLQKDNSSLPWRDLSECEESKRGERSSPEEQLLFLYIIYTVGYALSFSALVIASAILLGFRHLHCTRNYIHLNLFASFILRALSVFIKDAALKWMYATAAQQHQWDGLLSYQDSLSCRLVFLLMQYCVAANYYWLLVEGVYLYTLLAFSVLSEQWIFRLYVSIGWGVPLLFVVPWGIVKYLYEDEGCWTRNSNMNYWLIIRLPILFAIGVNFLIFVRVICIVVSKLKANLMCKTDIKCRLAKSTLTLIPLLGTHEVIFAFVMDEHARGTLRFIKLFTELSFTSFQGLMVAILYCFVNNEVQLEFRKSWERWRLEHLHIQRDSSMKPLKCPTSSLSSGATAGSSMYTATCQASCS
B2: glucagon-like peptide 1 receptor (GLP-1R), wild-type, P43220 T386A (protein)
chain: B1 chain with A183S, T363A
B3: glucagon-like peptide 1 receptor (GLP-1R), wild-type, P43220 D293A (protein)
chain: B1 chain with A183S, D270A
B4: glucagon-like peptide 1 receptor (GLP-1R), wild-type, P43220 K288A (protein)
chain: B1 chain with A183S, K265A
B5: glucagon-like peptide 1 receptor (GLP-1R), wild-type, P43220 S219A (protein)
chain: B1 chain with A183S, S196A
B6: glucagon-like peptide 1 receptor (GLP-1R), wild-type, P43220 N302A (protein)
chain: B1 chain with A183S, N279A
B7: glucagon-like peptide 1 receptor (GLP-1R), wild-type, P43220 M303A (protein)
chain: B1 chain with A183S, M280A
B8: glucagon-like peptide 1 receptor (GLP-1R), wild-type, P43220 N304A (protein)
chain: B1 chain with A183S, N281A
B9: glucagon-like peptide 1 receptor (GLP-1R), wild-type, P43220 W297A (protein)
chain: B1 chain with A183S, W274A
B10: glucagon-like peptide 1 receptor (GLP-1R), wild-type, P43220 Q210A (protein)
chain: B1 chain with A183S, Q187A
B11: glucagon-like peptide 1 receptor (GLP-1R), wild-type, P43220 H374A (protein)
chain: B1 chain with A183S, H351A
B12: glucagon-like peptide 1 receptor (GLP-1R), wild-type, P43220 I382A (protein)
chain: B1 chain with A183S, I359A
B13: glucagon-like peptide 1 receptor (GLP-1R), wild-type, P43220 L218A (protein)
chain: B1 chain with A183S, L195A
B14: glucagon-like peptide 1 receptor (GLP-1R), wild-type, P43220 F381A (protein)
chain: B1 chain with A183S, F358A
B15: glucagon-like peptide 1 receptor (GLP-1R), wild-type, P43220 R380A (protein)
chain: B1 chain with A183S, R357A
B16: glucagon-like peptide 1 receptor (GLP-1R), wild-type, P43220 W203A (protein)
chain: B1 chain with W180A, A183S
B17: glucagon-like peptide 1 receptor (GLP-1R), wild-type, P43220 Y291A (protein)
chain: B1 chain with A183S, Y268A
B18: glucagon-like peptide 1 receptor (GLP-1R), wild-type, P43220 Y305A (protein)
chain: B1 chain with A183S, Y282A
B19: glucagon-like peptide 1 receptor (GLP-1R), wild-type, P43220 V287A (protein)
chain: B1 chain with A183S, V264A
B20: glucagon-like peptide 1 receptor (GLP-1R), wild-type, P43220 D372A (protein)
chain: B1 chain with A183S, D349A
B21: glucagon-like peptide 1 receptor (GLP-1R), wild-type, P43220 Y205A (protein)
chain: B1 chain with Y182A, A183S
B22: glucagon-like peptide 1 receptor (GLP-1R), wild-type, P43220 L290A (protein)
chain: B1 chain with A183S, L267A
B23: glucagon-like peptide 1 receptor (GLP-1R), wild-type, P43220 K383A (protein)
chain: B1 chain with A183S, K360A
B24: glucagon-like peptide 1 receptor (GLP-1R), wild-type, P43220 E294A (protein)
chain: B1 chain with A183S, E271A
B25: glucagon-like peptide 1 receptor (GLP-1R), wild-type, P43220 I286A (protein)
chain: B1 chain with A183S, I263A
B26: glucagon-like peptide 1 receptor (GLP-1R), wild-type, P43220 H212A (protein)
chain: B1 chain with A183S, H189A
B27: glucagon-like peptide 1 receptor (GLP-1R), wild-type, P43220 T207A (protein)
chain: B1 chain with A183S, T184A
B28: glucagon-like peptide 1 receptor (GLP-1R), wild-type, P43220 D215A (protein)
chain: B1 chain with A183S, D192A
B29: glucagon-like peptide 1 receptor (GLP-1R), wild-type, P43220 Q221A (protein)
chain: B1 chain with A183S, Q198A
B30: glucagon-like peptide 1 receptor (GLP-1R), wild-type, P43220 G285A (protein)
chain: B1 chain with A183S, G262A
B31: glucagon-like peptide 1 receptor (GLP-1R), wild-type, P43220 T298A (protein)
chain: B1 chain with A183S, T275A
B32: glucagon-like peptide 1 receptor (GLP-1R), wild-type, P43220 K202A (protein)
chain: B1 chain with K179A, A183S
B33: glucagon-like peptide 1 receptor (GLP-1R), wild-type, P43220 Q211A (protein)
chain: B1 chain with A183S, Q188A
B34: glucagon-like peptide 1 receptor (GLP-1R), wild-type, P43220 L307A (protein)
chain: B1 chain with A183S, L284A
B35: glucagon-like peptide 1 receptor (GLP-1R), wild-type, P43220 M204A (protein)
chain: B1 chain with M181A, A183S

Tests used:
human GLP-1R wildtype [1] = target: T1, human GLP-1R wildtype (Homo sapiens, UniProt P43220); experiment: ERK1/2 phosphorylation; type: cell-based; details: normalized to FBS; n=3, duplicate; Figure S7
human GLP-1R wildtype [2] = target: T1, human GLP-1R wildtype; experiment: cAMP accumulation; type: cell-based; details: normalized to forskolin; n=3, duplicate; Figure S7
human GLP-1R R190A = experiment: cAMP production at R190A mutant; type: cell-based; details: Figure S3
Protocol: For cAMP assays, cells were stimulated for 30 min in the presence of the phosphodiesterase inhibitor IBMX and then lysed.
Dulbecco’s Modified Eagle’s Medium (DMEM) and Fluo-4 AM were purchased
from Invitrogen (Carlsbad, CA, USA). Foetal bovine serum (FBS) was purchased from Thermo
Electron Corporation (Melbourne, VIC, Australia). AlphaScreen reagents, 384-well opti and
proxiplates were purchased from PerkinElmer Life and Analytical Sciences (Waltham, MA, USA).
All other reagents were purchased from
Sigma-Aldrich (St. Louis, MO, USA) or BDH Merck (Melbourne, Vic, Australia) and were of an
Receptor mutagenesis. To study the influence of ECL amino acids, and R190 on receptor function,
the desired mutations were introduced to an N-terminally double c-myc labeled wild-type human GLP-
1R in the pEF5/FRT/V5-DEST destination vector (Invitrogen); this receptor had equivalent
Mutagenesis was carried out using oligonucleotides for
site-directed mutagenesis purchased from GeneWorks (HindMarsh, SA, Australia) and the
QuikChangeTM site-directed mutagenesis kit (Stratagene) and confirmed by automated sequencing
Cell culture: Stable transfections; Wild-type and mutant human GLP-1Rs were isogenically
integrated into FlpIn-Chinese hamster ovary (FlpInCHO) cells (Invitrogen) and selection of receptor-
expressing cells accomplished by treatment with 600 µg ml-1 hygromycin-B as previously described […]

exendin-4, P26349 = experiment: radioligand inhibition binding (competition with 125I-exendin-4(9-39)); details: chain shown with the change;; read off a plot

T1 sequence (P43220 24-463): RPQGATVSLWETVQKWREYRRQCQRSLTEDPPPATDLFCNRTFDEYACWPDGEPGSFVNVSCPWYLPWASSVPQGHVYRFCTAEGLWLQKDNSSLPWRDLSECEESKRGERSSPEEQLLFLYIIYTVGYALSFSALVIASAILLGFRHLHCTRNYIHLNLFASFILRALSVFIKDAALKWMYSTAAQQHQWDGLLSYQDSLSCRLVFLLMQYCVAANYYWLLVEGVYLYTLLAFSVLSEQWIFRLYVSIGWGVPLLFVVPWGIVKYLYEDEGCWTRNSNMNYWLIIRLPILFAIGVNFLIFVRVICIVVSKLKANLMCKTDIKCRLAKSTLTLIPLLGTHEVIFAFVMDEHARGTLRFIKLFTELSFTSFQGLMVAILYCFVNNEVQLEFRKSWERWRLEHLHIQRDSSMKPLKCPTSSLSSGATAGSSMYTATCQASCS

Row | Molecule | log10 ratio (exendin-4, P26349) | further results
1 | GLP-1(9-36)NH2 | – | pERK1/2 response (human GLP-1R wildtype [1]): can still promote pERK1/2; also recorded: maintains the ability to promote pERK1/2; cAMP response (human GLP-1R wildtype [2]): unable to activate the cAMP pathway; also recorded: unable to generate a cAMP response
2 | modified oxyntomodulin: oxyntomodulin with Q^3 substituted with E (HSEGTFTSDYSKYLDSRRAQDFVQWLMNTKRNRNNIA; Oxyntomodulin; UniProt P01275 53-89, looked up, variant Q3E) | – | requirement of R190 for cAMP production (human GLP-1R R190A): required for cAMP production
3 | B1 | -0.2 ΔpKi | –
4 | B2 | -0.55 ΔpKi | –
5 | B3 | -1.1 ΔpKi | –
6 | B4 | -1.9 ΔpKi | –
7 | B5 | -0.15 ΔpKi | –
8 | B6 | -1.2 ΔpKi | –
9 | B7 | -0.7 ΔpKi | –
10 | B8 | -0.4 ΔpKi | –
11 | B9 | -1.8 ΔpKi | –
12 | B10 | -0.25 ΔpKi | –
13 | B11 | -0.35 ΔpKi | –
14 | B12 | -0.15 ΔpKi | –
15 | B13 | -0.95 ΔpKi | –
16 | B14 | -0.35 ΔpKi | –
17 | B15 | -1.5 ΔpKi | –
18 | B16 | -0.15 ΔpKi | –
19 | B17 | -0.45 ΔpKi | –

Row | Molecule | log10 ratio (exendin-4, P26349) | further results
20 | B18 | -1.7 ΔpKi | –
21 | B19 | -0.25 ΔpKi | –
22 | B20 | -1.1 ΔpKi | –
23 | B21 | -0.5 ΔpKi | –
24 | B22 | -0.4 ΔpKi | –
25 | B23 | -1.1 ΔpKi | –
26 | B24 | 0.1 ΔpKi | –
27 | B25 | -0.3 ΔpKi | –
28 | B26 | 0.3 ΔpKi | –
29 | B27 | -0.2 ΔpKi | –
30 | B28 | -0.25 ΔpKi | –
31 | B29 | -0.2 ΔpKi | –
32 | B30 | -0.1 ΔpKi | –
33 | B31 | -0.1 ΔpKi | –
34 | B32 | -0.25 ΔpKi | –
35 | B33 | -0.2 ΔpKi | –
36 | B34 | -0.8 ΔpKi | –
37 | B35 | -0.75 ΔpKi | –

Source: publication PMC4912689, “The Extracellular Surface of the GLP-1 Receptor Is a Molecular Trigger for Biased Agonism” (Cell, 2016)
